Changes are numbered by the printed parent chain. Where “and” joins values, the source holds several entries; their conditions need not be identical. Equal values may be shown once.

The target in assay [1] is "N222Q" human IL-23 (elastikine sequence with Asn222 to Gln in the p40 subunit, expressed in SF9 cells) (human) (UniProt P29460). The assay can be described thus: BIAcore SPR, mAb amine-coupled on CM5 chip, IL-23 in solution, 25 C.
The target in assay [2] is "Bac-wt" human IL-23 (identical to elastikine human IL-23 in sequence, expressed in SF9 cells) (human) (UniProt P29460). Described as above.

B1: humanized anti-human IL-23p19 antibody hum7G10 (antibody, human IgG1, kappa, V domains shown)
VH: QVQLVQSGAEVKKPGASVKVSCKASGYTFTSNVMHWVRQAPGQGLEWMGYINPYNDGTKYNEKFKGRVTMTTDTSTSTAYMELRSLRSDDTAVYYCARNWDVAYWGQGTLVTVSS
VL: DIQMTQSPSSLSASVGDRVTITCRASQSISDYLHWYQQKPGKAPKLLIYYASQSISGVPSRFSGSGSGTDFTLTISSLQPEDFATYYCQNGHSFPFTFGQGTKVEIKR
As for B1, the Kd in assay [1] is 0.3 nM and 1 nM; in assay [2], 10 nM.

B2: humanized anti-human IL-23p19 antibody hum6H12 (antibody, human IgG1, kappa, V domains shown)
VH: B1 VH with T30N, S31R, N32Y, V33L, M34I, Y54N, D56A, K59N, V102Q
VL: B1 VL with A51T
For the molecule B2, the Kd is 0.5 nM in assay [1] and 5.1 nM in assay [2].
